In the supplement of paper PMC5998384:

Columns and labels:
[1] = test system: HeLa Kyoto; assay: solubility change mitosis vs G1/S (difference of NP-40 vs SDS log2 ratios) (log2 ratio difference); higher = more soluble in mitosis
[2] = test system: HeLa Kyoto; assay: thermal stability score vs G1/S (z-score of summed log2 fold changes over temperatures); higher = more thermally stable than in G1/S
[3] = test system: HeLa Kyoto; assay: melting temperature (median over replicates), in situ; higher = more thermally stable
[4] = test system: HeLa Kyoto; assay: solubility in G1/S (NP-40 vs SDS abundance) (log2 ratio); higher = more soluble; conditions: cell cycle stage: G1/S
[5] = cell cycle stage: early G1 (4.5 h after nocodazole release)
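Throughout, for melting temperature (median over replicates), in situ: HeLa Kyoto cells synchronized by double thymidine or nocodazole block, proteins quantified by TMT10plex mass spectrometry, three independent biological replicates.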
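Throughout, for solubility change mitosis vs G1/S (difference of NP-40 vs SDS log2 ratios): synchronized HeLa Kyoto cells (double thymidine block for G1/S, nocodazole release for mitosis), protein amounts in NP-40 versus SDS lysates quantified by mass spectrometry, three biological replicates.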
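Throughout, for solubility in G1/S (NP-40 vs SDS abundance): HeLa Kyoto cells arrested at G1/S by double thymidine block, proteins quantified by TMT10plex mass spectrometry in mild NP-40 versus SDS extracts, three biological replicates.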
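Throughout, for thermal stability score vs G1/S (z-score of summed log2 fold changes over temperatures): synchronized HeLa Kyoto cells, proteins quantified by TMT10plex mass spectrometry, three biological replicates, mitosis taken 0.5 h after nocodazole release, G1/S directly after double thymidine block.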

Chain of BAG3 (chain, as listed by the source): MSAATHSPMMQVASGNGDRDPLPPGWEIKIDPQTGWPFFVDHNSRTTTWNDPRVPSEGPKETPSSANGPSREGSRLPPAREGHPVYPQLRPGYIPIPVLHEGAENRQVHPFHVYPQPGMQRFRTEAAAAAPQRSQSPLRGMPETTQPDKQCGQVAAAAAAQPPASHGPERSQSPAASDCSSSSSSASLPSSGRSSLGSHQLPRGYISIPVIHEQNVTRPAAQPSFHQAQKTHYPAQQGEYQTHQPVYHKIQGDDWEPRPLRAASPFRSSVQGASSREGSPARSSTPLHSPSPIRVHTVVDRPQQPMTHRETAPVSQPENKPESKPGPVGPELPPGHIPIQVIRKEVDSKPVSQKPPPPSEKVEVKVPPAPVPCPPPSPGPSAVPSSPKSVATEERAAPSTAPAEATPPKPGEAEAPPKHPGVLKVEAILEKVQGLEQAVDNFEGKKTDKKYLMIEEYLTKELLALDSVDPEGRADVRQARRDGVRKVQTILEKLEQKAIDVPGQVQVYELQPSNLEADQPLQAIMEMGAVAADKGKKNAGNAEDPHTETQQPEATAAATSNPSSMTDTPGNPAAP

Row | Substance | solubility change mitosis (log2) [1] | thermal stability score [2, 5] | thermal stability score ([2]; cell cycle stage: mitosis) | melting temperature ([3]; cell cycle stage: G1/S) [°C] | melting temperature ([3]; cell cycle stage: mitosis) [°C] | solubility in G1/S (log2) [4]
1 | MDAPRASAAKPPTGRKMKARAPPPPGKAATLHVHSDQKPPHDGALGSQQNLVRMKEALRASTMDVTVVLPSGLEKRSVLNGSHAMMDLLVELCLQNHLNPSHHALEIRSSETQQPLSFKPNTLIGTLNVHTVFLKEKVPEEKVKPGPPKVPEKSVRLVVNYLRTQKAVVRVSPEVPLQNILPVICAKCEVSPEHVVLLRDNIAGEELELSKSLNELGIKELYAWDNRRETFRKSSLGNDETDKEKKKFLGFFKVNKRSNSKGCLTTPNSPSMHSRSLTLGPSLSLGSISGVSVKSEMKKRRAPPPPGSGPPVQDKASEKVSLGSQIDLQKKKRRAPAPPPPQPPPPSPLIPNRTEDKEENRKSTMVSLPLGSGSHCSPDGAPQVLSEAEETVSVGSCFASEDTTEDSGVMSSPSDIVSLDSQQDSMKYKDKWATDQEDCSDQDLAGTPDLGPQKSPLWEKNGSENSHLRTEKAVTASNDEEDLLIAGEFRKTLAELDEDLEEMEDSYETDTSSLTSSIHGASNHCPQDAMIPHGDTDAIPVTFIGEVSDDPVDSGLFSNRNNNAGSFDSEGVASRRDSLAPLQAEHSQPHEKAREEVPALHPASHDVGKGIRVALSNISKDGNLMETAPRVTSFASNLHTDNLNAKVKDKVYGCADGERTQATERVNSQPVNEKDSNDKNAALAPTSWHQRGQNPGKSYRLKHGLTTYKIIPPKSEMRCYDRDVSLSTGAIKIDELGNLVSPHATGIRIISLSSSVPEAESQPIGKVREFWRCNSVEKHLGRPSESSARGPPSTPVPTQTQNPESRLQADPKPISPQQKSAHHEGRNPLGEGRNQPPTMGMGHVRVPAAHTTEVTFLKPQRRTSSQYVASAIAKRIGAPKVHADVVRPHGYAEKGYAGKAPVLAAPPVTVKDDRTSSPHSETQGWKDGAQWPCVTPPNNHGEDLAVGAPPRGEVIGPHRKLSTQDRPAAIHRSSCFSLVQSSQRDRVSVGQSCGFSGKQSTSSQEASSASEPRRAPDGTDPPPPHTSDTQACSRELVNGSVRAPGHGEPSHPPGGSGTESHILLEREEKPSVFSTDGNETDSIWPPSIFGPKKKFKPVVQRPVPKDTSLHSALMEAIHSAGGKDRLRKTAEHTGEGRPAKLSYTEAEGERSALLAAIRGHSGTCSLRKVASSASEELQSFRDAALSAQGSESPLLEDLGLLSPPAIPPPPPPPSQALSAPRTASRFSTGTLSNTADARQALMDAIRSGTGAARLRKVPLLV [COBL] | 0.177 | 1.3 | 1.18 | 49.1 | 49.8 | -0.423
2 | MTLESMMACCLSDEVKESKRINAEIEKQLRRDKRDARRELKLLLLGTGESGKSTFIKQMRIIHGAGYSEEDKRGFTKLVYQNIFTAMQAMIRAMETLKILYKYEQNKANALLIREVDVEKVTTFEHQYVSAIKTLWEDPGIQECYDRRREYQLSDSAKYYLTDVDRIATLGYLPTQQDVLRVRVPTTGIIEYPFDLENIIFRMVDVGGQRSERRKWIHCFENVTSIMFLVALSEYDQVLVESDNENRMEESKALFRTIITYPWFQNSSVILFLNKKDLLEDKILYSHLVDYFPEFDGPQRDAQAAREFILKMFVDLNPDSDKIIYSHFTCATDTENIRFVFAAVKDTILQLNLKEYNLV [GNA11] | -0.121 | 0.848 | 0.911 | 51.1 | 50.6 | -0.276
3 | MENGYTYEDYKNTAEWLLSHTKHRPQVAIICGSGLGGLTDKLTQAQIFDYGEIPNFPRSTVPGHAGRLVFGFLNGRACVMMQGRFHMYEGYPLWKVTFPVRVFHLLGVDTLVVTNAAGGLNPKFEVGDIMLIRDHINLPGFSGQNPLRGPNDERFGDRFPAMSDAYDRTMRQRALSTWKQMGEQRELQEGTYVMVAGPSFETVAECRVLQKLGADAVGMSTVPEVIVARHCGLRVFGFSLITNKVIMDYESLEKANHEEVLAAGKQAAQKLEQFVSILMASIPLPDKAS [PNP] | -0.144 | -0.982 | -1.39 | 60.3 | 60.2 | 0.301
4 | MWIPVVGLPRRLRLSALAGAGRFCILGSEAATRKHLPARNHCGLSDSSPQLWPEPDFRNPPRKASKASLDFKRYVTDRRLAETLAQIYLGKPSRPPHLLLECNPGPGILTQALLEAGAKVVALESDKTFIPHLESLGKNLDGKLRVIHCDFFKLDPRSGGVIKPPAMSSRGLFKNLGIEAVPWTADIPLKVVGMFPSRGEKRALWKLAYDLYSCTSIYKFGRIEVNMFIGEKEFQKLMADPGNPDLYHVLSVIWQLACEIKVLHMEPWSSFDIYTRKGPLENPKRRELLDQLQQKLYLIQMIPRQNLFTKNLTPMNYNIFFHLLKHCFGRRSATVIDHLRSLTPLDARDILMQIGKQEDEKVVNMHPQDFKTLFETIERSKDCAYKWLYDETLEDR [TFB2M] | -0.038 | 0.218 | 1 | 50.5 | 50.7 | 0.194
5 | EIF5A | 0.0244 | 0.791 | 0.0469 | 49.7 | 50.7 | 0.638
6 | MAAATADPGAGNPQPGDSSGGGAGGGLPSPGEQELSRRLQRLYPAVNQQETPLPRSWSPKDKYNYIGLSQGNLRVHYKGHGKNHKDAASVRATHPIPAACGIYYFEVKIVSKGRDGYMGIGLSAQGVNMNRLPGWDKHSYGYHGDDGHSFCSSGTGQPYGPTFTTGDVIGCCVNLINGTCFYTKNGHSLGIAFTDLPANLYPTVGLQTPGEIVDANFGQQPFLFDIEDYMREWRAKVQGTVHCFPISARLGEWQAVLQNMVSSYLVHHGYCATATAFARMTETPIQEEQASIKNRQKIQKLVLEGRVGEAIETTQRFYPGLLEHNPNLLFMLKCRQFVEMVNGTDSEVRSLSSRSPKSQDSYPGSPSLSPRHGPSSSHMHNTGADSPSCSNGVASTKSKQNHSKYPAPSSSSSSSSSSSSSSPSSVNYSESNSTDSTKSQHHSSTSNQETSDSEMEMEAEHYPNGVLGSMSTRIVNGAYKHEDLQTDESSMDDRHPRRQLCGGNQAATERIILFGRELQALSEQLGREYGKNLAHTEMLQDAFSLLAYSDPWSCPVGQQLDPIQREPVCAALNSAILESQNLPKQPPLMLALGQASECLRLMARAGLGSCSFARVDDYLH [RANBP10] | -0.193 | 0.428 | 0.506 | 51.4 | 51.1 | 0.151
7 | CTBP2 | -0.0285 | -2.44 | -6.63 | 55.3 | 53.4 | 0.144
8 | MSDFDSNPFADPDLNNPFKDPSVTQVTRNVPPGLDEYNPFSDSRTPPPGGVKMPNVPNTQPAIMKPTEEHPAYTQIAKEHALAQAELLKRQEELERKAAELDRREREMQNLSQHGRKNNWPPLPSNFPVGPCFYQDFSVDIPVEFQKTVKLMYYLWMFHAVTLFLNIFGCLAWFCVDSARAVDFGLSILWFLLFTPCSFVCWYRPLYGAFRSDSSFRFFVFFFVYICQFAVHVLQAAGFHNWGNCGWISSLTGLNQNIPVGIMMIIIAALFTASAVISLVMFKKVHGLYRTTGASFEKAQQEFATGVMSNKTVQTAAANAASTAASSAAQNAFKGNQI [SCAMP1] | -0.114 | -0.608 | -0.121 | 55.8 | 56 | 0.0609
9 | BAG3 | 1.06 | 1.43 | 5.24 | 53.6 | 53.1 | 0.185
10 | PCMT1 | 0.147 | 0.536 | -0.469 | 54 | 54.8 | 0.427
11 | MREYKVVVLGSGGVGKSALTVQFVTGTFIEKYDPTIEDFYRKEIEVDSSPSVLEILDTAGTEQFASMRDLYIKNGQGFILVYSLVNQQSFQDIKPMRDQIVRVKRYEKVPLILVGNKVDLEPEREVMSSEGRALAQEWGCPFMETSAKSKSMVDELFAEIVRQMNYSSLPEKQDQCCTTCVVQ [RAP2C] | -0.0697 | 1.5 | -1.73 | 56.9 | 55.4 | 0.0732
12 | MACAAARSPADQDRFICIYPAYLNNKKTIAEGRRIPISKAVENPTATEIQDVCSAVGLNVFLEKNKMYSREWNRDVQYRGRVRVQLKQEDGSLCLVQFPSRKSVMLYAAEMIPKLKTRTQKTGGADQSLQQGEGSKKGKGKKKK [SRP19] | 0.161 | 0.816 | -0.116 | 50.8 | 50.8 | 0.299
13 | MAAAAPDSRVSEEENLKKTPKKKMKMVTGAVASVLEDEATDTSDSEGSCGSEKDHFYSDDDAIEADSEGDAEPCDKENENDGESSVGTNMGWADAMAKVLNKKTPESKPTILVKNKKLEKEKEKLKQERLEKIKQRDKRLEWEMMCRVKPDVVQDKETERNLQRIATRGVVQLFNAVQKHQKNVDEKVKEAGSSMRKRAKLISTVSKKDFISVLRGMDGSTNETASSRKKPKAKQTEVKSEEGPGWTILRDDFMMGASMKDWDKESDGPDDSRPESASDSDT [RRP15] | 0.962 | -5.18 | -11.7 |  | 54.2 | -1.21
14 | MASEDIAKLAETLAKTQVAGGQLSFKGKSLKLNTAEDAKDVIKEIEDFDSLEALRLEGNTVGVEAARVIAKALEKKSELKRCHWSDMFTGRLRTEIPPALISLGEGLITAGAQLVELDLSDNAFGPDGVQGFEALLKSSACFTLQELKLNNCGMGIGGGKILAAALTECHRKSSAQGKPLALKVFVAGRNRLENDGATALAEAFRVIGTLEEVHMPQNGINHPGITALAQAFAVNPLLRVINLNDNTFTEKGAVAMAETLKTLRQVEVINFGDCLVRSKGAVAIADAIRGGLPKLKELNLSFCEIKRDAALAVAEAMADKAELEKLDLNGNTLGEEGCEQLQEVLEGFNMAKVLASLSDDEDEEEEEEGEEEEEEAEEEEEEDEEEEEEEEEEEEEEPQQRGQGEKSATPSRKILDPNTGEPAPVLSSPPPADVSTFLAFPSPEKLLRLGPKSSVLIAQQTDTSDPEKVVSAFLKVSSVFKDEATVRMAVQDAVDALMQKAFNSSSFNSNTFLTRLLVHMGLLKSEDKVKAIANLYGPLMALNHMVQQDYFPKALAPLLLAFVTKPNSALESCSFARHSLLQTLYKV [RANGAP1] | 0.199 | 0.55 | 2.63 | 48.6 | 49 | 0.166
15 | MTTQQIDLQGPGPWGFRLVGGKDFEQPLAISRVTPGSKAALANLCIGDVITAIDGENTSNMTHLEAQNRIKGCTDNLTLTVARSEHKVWSPLVTEEGKRHPYKMNLASEPQEVLHIGSAHNRSAMPFTASPASSTTARVITNQYNNPAGLYSSENISNFNNALESKTAASGVEANSRPLDHAQPPSSLVIDKESEVYKMLQEKQELNEPPKQSTSFLVLQEILESEEKGDPNKPSGFRSVKAPVTKVAASIGNAQKLPMCDKCGTGIVGVFVKLRDRHRHPECYVCTDCGTNLKQKGHFFVEDQIYCEKHARERVTPPEGYEVVTVFPK [PDLIM1] | 0.147 | -1.51 | -0.369 | 55.6 | 56 | 0.455
16 | PLXNB2 | -0.0477 | -1.95 | -2.08 | 52.2 | 51.1 | -0.0357
17 | MDDLCEANGTFAISLFKILGEEDNSRNVFFSPMSISSALAMVFMGAKGSTAAQMSQALCLYKDGDIHRGFQSLLSEVNRTGTQYLLRTANRLFGEKTCDFLPDFKEYCQKFYQAELEELSFAEDTEECRKHINDWVAEKTEGKISEVLDAGTVDPLTKLVLVNAIYFKGKWNEQFDRKYTRGMLFKTNEEKKTVQMMFKEAKFKMGYADEVHTQVLELPYVEEELSMVILLPDDNTDLAVVEKALTYEKFKAWTNSEKLTKSKVQVFLPRLKLEESYDLEPFLRRLGMIDAFDEAKADFSGMSTEKNVPLSKVAHKCFVEVNEEGTEAAAATAVVRNSRCSRMEPRFCADHPFLFFIRHHKTNCILFCGRFSSP [SERPINB8] | -0.115 | -0.0278 | -0.739 | 54.6 | 54.2 | 0.146
